The record followed here is patent US20250019450A1 (DIAGONAL THERAPEUTICS, published 2025).

Sequences and labels used below:
B1: DGL603 (bispecific antibody, V domains shown)
V domain 1: EVQLVESGGGLVQPGGSLRLSCAASGFTFQNYAMSWLRKAPGEGLEWVSVINSGGGSTLYADSVKGRFTISRDNAKNTLYLQMHSLKSEDTAVYFCAKRRDDSTFGSLLYTHRGQGTQVTVEP
V domain 2: QVQLVESGGGLVQPGGSLRLSCAASGFTFSNYAMSWVRQAPGKGLEWVSAINSDGTSTSYADSVKGQFTISRDNAKNTLYLQMNSLKPEDTAVYYCTKWEGDTDSDYKFKDYWGQGTQVTVEP
B2: DGL461 (bispecific antibody, V domains shown)
V domain 1: EVQLVESGGGLVQPGGSLRLSCAASGFTFQNYAMSWLRKAPGEGLEWVSVINSGGGSTLYADSVKGRFTISRDNAKNTLYLQMHSLKSEDTAVYFCAKRRDDSTFGSLLYTHRGQGTQVTVEP
V domain 2: QVQLVESGGGLVQPGGSLRLSCAASGFTFEPYDMSWFRQAPGKGPEWVSAIDKGGGAGATYYADSVKGRFTISRDNAKKTLYLQMKSLKPEDTAVYYCAITAGPYSDSTPRVAYRGEGTQVTVEP
B3: DGL497 (bispecific antibody, V domains shown)
V domain 1: EVQLVESGGGLVQAGGSLRLSCAASGLTFRNYAMAWFRQAPGKEREFVAGITWGGGLTHYVDSVKGRFTISRDNGKNTVYLQMNSLKSEDTAVYYCAGKTQGSTWYHLTPDGYDYWGQGTQVTVEP
V domain 2: QVQLVESGGGLVQPGGSLRLSCAASGFTFSNYAMSWIRQGPERGFEWVSRINSGGGTTSYADSVKGRFTISRDNAKNTLYLQMNSLKPEDTAVYYCAKHSHPDYSSNYYRPGQGTQVTVEP
B4: DGL506 (bispecific antibody, V domains shown)
V domain 1: EVQLVESGGGLVQAGGSLRLSCAASGLTFRNYAMAWFRQAPGKEREFVAGITWGGGLTHYVDSVKGRFTISRDNGKNTVYLQMNSLKSEDTAVYYCAGKTQGSTWYHLTPDGYDYWGQGTQVTVEP
V domain 2: QVQLVESGGGLVQAGGSLKLSCAASGGTFSSYAMGWFRQAPGKEREFVAAIMRSGGTTVYVNSVKGRFTVSRDNAKNTVYLQMNSLKPEDAAVYYCAAGRPVSRTSYYTYTYPHDYDYWGQGTQVSVEP
B5: DGL594 (bispecific antibody, V domains shown)
V domain 1: EVQLVESGGGLVQAGGSLRLSCAASGSKFSFNAMGWYRQTPGKQRELVAIIINGDMINYADSVKGRFTISRDNAKNTMYLQMNSLKPEDTAVYYCKMTRYVYDYWGQGTQVTVEP
V domain 2: QVQLVESGGGLVQPGGSLRLSCAASGFTFSSKAMHWFRQAPGKGLEWVSSINSGGAITYYKDSVKGRFTVSRDNAKNILYLEMNSLKPEDTALYYCATDTDGRTRGQGTQVTVEP
B6: DGL587 (bispecific antibody, V domains shown)
V domain 1: QVQLVESGGGLVQAGGSLRLSCAASGRTFSSYVMGWFRQAPGQEREFVAAIMRNGIMTYYADSVKGRFTISRDNAKNTVYLQMNTLKPDDTAVYYCAAASRVGVSISQSSSYTSWGQGTQVTVEP
V domain 2: QVQLVESGGGLVQPGGSLRLSCAASGFTFSSKAMHWFRQAPGKGLEWVSSINSGGAITYYKDSVKGRFTVSRDNAKNILYLEMNSLKPEDTALYYCATDTDGRTRGQGTQVTVEP
B7: DGL413 (bispecific antibody, human IgG1, kappa)
heavy 1: not shown
heavy 2: QVQLVESGGGLVQAGGSLRLSCAASGRTFSRYRMGWFRQAPGKEREFVAAITKSGATTYDADSVKGRFTISRDNAKNTLYLQMNSLKPEDTAVYYCAASYHSNWWPKNADEYAYWGQGTQVTVEPKSSDKTHTCPPCPAPEAAGAPSVFLFPPKPKDTLMISRTPEVTCVVVDVSHEDPEVKFNWYVDGVEVHNAKTKPREEQYNSTYRVVSVLTVLHQDWLNGKEYKCKVSNKALPAPIEKTISKAKGQPREPQVCTLPPSRDELTKNQVSLSCAVKGFYPSDIAVEWESNGQPENNYKTTPPVLDSDGSFFLVSKLTVDKSRWQQGNVFSCSVMHEALHNRFTQKSLSLSPG
light: DIQMTQSPSSLSASVGDRVTITCRASQGIGNYLAWFQQRPGKAPKSLIYAASSLQSGVPSKFSGSGSGTDFTLTISSLQPADFAIYYCQQYNIYPYTFGPGTRLEIKRTVAAPSVFIFPPSDEQLKSGTASVVCLLNNFYPREAKVQWKVDNALQSGNSQESVTEQDSKDSTYSLSSTLTLSKADYEKHKVYACEVTHQGLSSPVTKSFNRGEC

The assay deals with human IL-12 receptor (IL-12Rβ1 and IL-12Rβ2) on HEK-Blue IL-12 cells (human, UniProt P42701 24-662; Q99665 24-862). Briefly: cell-based or functional assay.
human IL-12 receptor (IL-12Rβ1 and IL-12Rβ2) on HEK-Blue IL-12 cells, sequence (Q99665 24-862, chain 2 of 2, other chains not shown): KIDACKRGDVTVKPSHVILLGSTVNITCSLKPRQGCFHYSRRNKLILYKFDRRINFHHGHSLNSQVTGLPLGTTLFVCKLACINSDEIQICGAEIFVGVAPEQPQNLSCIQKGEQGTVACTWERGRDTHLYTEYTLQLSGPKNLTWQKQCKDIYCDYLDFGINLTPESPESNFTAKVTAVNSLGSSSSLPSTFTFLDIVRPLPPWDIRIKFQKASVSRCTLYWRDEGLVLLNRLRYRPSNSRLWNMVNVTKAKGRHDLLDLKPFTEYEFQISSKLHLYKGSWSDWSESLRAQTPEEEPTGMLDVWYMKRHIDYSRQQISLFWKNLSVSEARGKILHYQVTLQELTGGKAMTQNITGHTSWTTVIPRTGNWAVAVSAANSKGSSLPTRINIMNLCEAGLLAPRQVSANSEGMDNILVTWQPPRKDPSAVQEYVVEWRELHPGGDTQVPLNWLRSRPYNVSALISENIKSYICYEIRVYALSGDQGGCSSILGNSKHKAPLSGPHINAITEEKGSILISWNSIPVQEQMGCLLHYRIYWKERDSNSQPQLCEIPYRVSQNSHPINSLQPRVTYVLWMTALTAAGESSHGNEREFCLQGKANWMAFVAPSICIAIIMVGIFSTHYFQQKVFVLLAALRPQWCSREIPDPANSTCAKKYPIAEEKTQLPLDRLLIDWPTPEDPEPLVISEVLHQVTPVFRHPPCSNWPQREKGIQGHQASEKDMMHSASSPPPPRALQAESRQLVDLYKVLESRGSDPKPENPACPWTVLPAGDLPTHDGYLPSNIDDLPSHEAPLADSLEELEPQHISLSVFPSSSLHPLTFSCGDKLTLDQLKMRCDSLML
Consider B1, for which the “Max Absorbance” value came out at 0.31.

On to B2, for which the “Max Absorbance” value was found to be 0.31.

Consider B3, for which the “Max Absorbance” value came out at 0.32.

For B4, the “Max Absorbance” value came out at 0.31.

On to B5, for which the “Max Absorbance” value came to 0.33.

As to B6, the “Max Absorbance” value came out at 0.32.

Turning to B7, the “Max Absorbance” value stood at 0.29.
